Data set [1] deals with full-length Physcomitrium patens DUR3 (PpDUR3) fused with C-terminal GFP (Physcomitrium patens). Description: SEC.
Data set [2] addresses full-length maize DUR3 fused with C-terminal GFP (Zea mays L.). Description: SEC.
Data set [3] addresses maize DUR3 (ZmDUR3) with a C-terminal Strep-tag (Zea mays L.). In words: cryo-EM structure.
The data set “SEC” deals with the molecule itself. Description: SEC.

For orientation: stoichiometry N means a count of units in the complex or per binding partner. For “full-length Physcomitrium patens DUR3 (PpDUR3) fused with C-terminal GFP (natural protein)”, the stoichiometry N in data set [1] turned out to be 4.
“full-length maize DUR3 fused with C-terminal GFP (natural protein)” gave a stoichiometry N in data set [2] of 4.
“maize DUR3 (ZmDUR3) with a C-terminal Strep-tag (natural protein)” showed a stoichiometry N in data set [3] of 4.

B1: full-length rice DUR3 (OsDUR3) fused with C-terminal GFP (natural protein, Oryza sativa, UniProt Q7XBS0 1-721, looked up)
chain: MASGVCPPAELGFGAEYYSVVNGVCSRAGSYFGGRPVLTQAVGYAVVLGFGAFFALFTSFLVWLEKRYVGSQHTSEWFNTAGRSVKTGLIASVIVSQWTWAATILQSSNVAWQYGVSGPFWYASGATIQVLLFGVMAIEIKRKAPNAHTVCEIVRARWGTPAHLVFLTFCLLTNVIVTAMLLLGGSAVVNALTGVNVYAASFLIPLGVVVYTLAGGLKATFLASYIHSVVVHAVLVVFVFLVYTSSSKLGSPRVVYDRLMAVASAARDCSADLSRNGQACGPVAGNFKGSYLTMLSSGGLVFGIINIVGNFGTVFVDNGYWMSAIAARPSSTHKGYLLGGLVWFAVPFSLATSLGLGALALDLPLTAAEAAKGLVPPATATALMGKSGSVLLLTMLFMAVTSAGSAELVAVSSLCTYDIYRTYLNPGASGKQILRVSRAVVLGFGCFMGVLAVVLNVAGVSLGWMYLAMGVIVGSAVIPIALLLLWSKANAVGAMGGAVSGCALGVAVWLTVAKVQYGRVNLDTTGRNAPMLAGNLVSILVGGAVHAACSLLRPQHYDWGTSREMITTVESVHAALDDELKEERLVHAKRWIVRWGLVFTAVIVVAWPALSLPARRYSLGYFTLWAAVAIAWGTVGSVVIILLPVAESWTTITKVCAGMFTNDAVYDRLDDVNLRLRAIMGAMPEAEKRYRQLHETEMHPAGTHPANDDDDDNNNNQMMHS
B1: the “stoichiometry N” value in the data set “SEC” was found to be 4.

B2: full-length Arabidopsis thaliana DUR3 fused with C-terminal GFP (natural protein, UniProt F4KD71 1-704, looked up)
chain: MATCPPFDFSTKYYDGDGGCQRQSSFFGGTTVLDQGVGYAVILGFGAFFAVFTSFLVWLEKRYVGARHTSEWFNTAGRNVKTGLIASVIVSQWTWAATILQSSNVAWQYGVSGPFWYASGATIQVLLFGVMAIEIKRKAPNAHTVCEIVKARWGTATHIVFLVFCLATNVVVTAMLLLGGSAVVNALTGVNLYAASFLIPLGVVVYTLAGGLKATFLASYVHSVIVHVALVVFVFLVYTSSKELGSPSVVYDRLKDMVAKSRSCTEPLSHHGQACGPVDGNFRGSYLTMLSSGGAVFGLINIVGNFGTVFVDNGYWVSAIAARPSSTHKGYLLGGLVWFAVPFSLATSLGLGALALDLPISKDEADRGLVPPATAIALMGKSGSLLLLTMLFMAVTSAGSSELIAVSSLFTYDIYRTYINPRATGRQILKISRCAVLGFGCFMGILAVVLNKAGVSLGWMYLAMGVLIGSAVIPIAFMLLWSKANAFGAILGATSGCVFGIITWLTTAKTQYGRVDLDSTGKNGPMLAGNLVAILTGGLIHAVCSLVRPQNYDWSTTREIKVVEAYASGDEDVDVPAEELREEKLRRAKAWIVKWGLVFTILIVVIWPVLSLPARVFSRGYFWFWAIVAIAWGTIGSIVIIGLPLVESWDTIKSVCMGMFTNDRVMKKLDDLNHRLRALTMAVPEAEKIYLLELEKTKKNDEEG
On to B2, for which, in the data set “SEC”, the “stoichiometry N” value stood at 4.

The values above are taken from article doi:10.1101/2025.05.20.653754 (bioRxiv, 2025).
